Here are results for two molecules from US10258699B2, “Angiopep and derivatives thereof for imaging amyloids” (University Of Science And Technology Of China, priority 2014, dated 2019).

The target in one series is Aβ1-42 aggregates (Homo sapiens, UniProt P05067). Put plainly: biochemical.
For series [1], the system named is APP transgenic mice's brains. In words: In vivo near-infrared imaging of APP transgenic mouse after intravenous injection. Particulars: 13 mg/kg intravenous injection.
Description: (§1) Optical in vivo imaging study was performed on IVIS imaging system, an optical imaging system from Caliper Life Sciences for imaging living body with an excitation filter set as Cy5.5, and emission spectrum band-pass filter as 640 nm. Before imaging, the mice were anaesthetized with a mixture gas of isoflurane and oxygen, and placed on an imaging plate with its face downward. White light photography (exposure time: 0.2 s) and near-infrared fluorescent imaging (exposure time: 5 s) were performed under the same field of vision (FOV) (FOV=12.5 cm, f/stop=1, Bin=1) at time points including before injection and several selected time points after intravenous injection. Each mouse received an injection dose of 13 mg/kg. White light photographs and near-infrared fluorescent images were superimposed to determine the size of intracranial portion. Finally, the imaging views were processed by using Living Image Software (Caliper Life Sciences).
Series [2] relates to amyloid deposits in APP transgenic mouse brain. Put plainly: Fluorescent microscopy of APP transgenic mouse's brain sections after intravenous injection of the Cy5.5 conjugate. The settings on record: 13 mg/kg intravenous, brain removed after 30 minutes. Format: in vivo.
Description: 30 minutes after intravenous administration (13 mg/kg), the mice were sacrificed, and then their brains were removed and frozen in liquid nitrogen. […] The brain was cut into sections of about 25 m in thickness using a frozen tissue microtome (Lecia CM1950). The sections were then placed on a fluorescent microscope (IX8, OLYMPUS) for observation and photography.
For series [3], the system named is APP transgenic mice's brains. Particulars: mouse, in vivo.
Description: as §1

pKd: −log10 of the molar value.

Aβ1-42 aggregates, sequence (P05067 672-713 limits assumed): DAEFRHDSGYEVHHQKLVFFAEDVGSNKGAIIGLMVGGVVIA
amyloid deposits in APP transgenic mouse brain, sequence (P05067 672-711 limits assumed): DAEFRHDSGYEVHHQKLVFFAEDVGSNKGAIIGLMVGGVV
Description for Aβ1-42 aggregates: Dissolving Aβ1-42 solid in PBS (PH 7.4) at a concentration of 0.25 mg/ml (55.38 uM), incubating in 37° C. water bath on a shaker for 42 h.
Preparing solutions (containing 10% DMF), containing the conjugate formed by angiopep-2 and FITC (10 uM) as well as Aβ1-42 aggregates (0, 5, 10 uM) or BSA (45 ug/mL), respectively; incubating the mixture solution at 37° C. for 30 minutes.
Preparing solutions (containing 10% DMF), containing the conjugate formed by angiopep-2 and FITC (0-3.75 uM) as well as Aβ1-42 aggregates (2.2 uM) or BSA (10 uM), respectively, incubating the mixture solution at 37° C. for 30 minutes.
Detecting the mixture solutions prepared above for their emission spectrum with fluorescence spectrophotometer, emission wavelength: 333 nm, maximum emission wavelength: 531 nm, in the range of 500-600 nm.
Plotting by using GraphPad Prism 5.0 (GraphPad Software, Inc., La Jolla, Calif., USA) and calculating equilibrium dissociation constant.

The pKd is the Kd on a negative log10 scale, so that one unit is a factor of ten. For the molecule `C[C@@H](O)[C@H](NC(=O)CCCCCNC(=S)Nc1ccc2c(c1)C(=O)OC21c2ccc(O)cc2Oc2cc(O)ccc21)C(=O)N[C@@H](Cc1ccccc1)C(=O)N[C@@H](Cc1ccccc1)C(=O)N[C@@H](Cc1ccc(O)cc1)C(=O)NCC(=O)NCC(=O)N[C@@H](CO)C(=O)N[C@@H](CCCNC(=N)N)C(=O)NCC(=O)N[C@@H](CCCCN)C(=O)N[C@@H](CCCNC(=N)N)C(=O)N[C@@H](CC(N)=O)C(=O)N[C@@H](CC(N)=O)C(=O)N[C@@H](Cc1ccccc1)C(=O)N[C@@H](CCCCN)C(=O)N[C@H](C(=O)N[C@@H](CCC(=O)O)C(=O)N[C@@H](CCC(=O)O)C(=O)N[C@@H](Cc1ccc(O)cc1)C(=O)O)[C@@H](C)O` [conjugate formed by angiopep-2 and FITC], on Aβ1-42 aggregates, the pKd is 6.17. Further, the “passing through BBB and aggregation in brain in vivo” value in series [1] (APP transgenic mice) is “can pass through BBB and aggregate in APP transgenic mice's brains in vivo”.
For the molecule “conjugate formed by angiopep-2 and Cy5.5: angiopep-2 (TFFYGGSRGKRNNFKTEEY) linked N-terminally via Acp to Cy5.5; near-infrared imaging conjugate, MW 2880.24 Da”, the “labeling of amyloid deposits in brain in vivo” value in series [2] was “can bind to and label the amyloid deposits”. The “time after which cleared from brain” value in series [3] was 20 h. Besides, in series [1] (APP mice), the “aggregation in brain (near-infrared imaging)” value is on record as “aggregated in APP mice's brains”.
